T1: HA3-RUB-GST, Q9SHE7
T1 chain: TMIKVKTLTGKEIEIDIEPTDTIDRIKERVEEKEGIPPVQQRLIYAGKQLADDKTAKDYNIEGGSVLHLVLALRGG

B1: His-tagged OTU7a (protein)
chain: MAKTKQQKSKPKKQPHQKQGKDCDLSQFRAQLDALGLKIIQVTADGNCFFRAIADQLEGNEDEHNKYRNMIVLYIVKNREMFEPFIEDDVPFEDYCKTMDDDGTWAGNMELQAASLVTRSNICIHRNMSPRWYIRNFEDTRTRMIHLSYHDGEHYNSVRSKEDACGGPARPVVIEADAKVSAASKQAKATESKSKNKADKCHVNAGAIKVVMSGSCCDNTEKAEQVLLQVNGDVDAAIEFLIADQGMESLTENDTETASASDTINPKHASDSPMENTEQAREELIEEESASGNNSETVQAKCTTQTDDKKIPRNKTCPCGSKKKYKSCCGTATGRSSVKLLVSQTMESKKGRKNLRRGTSNEVEANAPDVGALCI
B2: His-tagged OTU9 (protein)
chain: MGYEPDPDALRWGLHDLEVCTLTNAGSCSSVTRYESGGGGTQGYVREGYNQPVTGYVDNDAVIAQFYQDELSRVARAEASGINSLSPTSVVAQDWPHPHQGQENQGEAIDITQESDILHNHNGNMEDKNVARIRFEGGQSSPSRDDDSVCSVEIEEESWSEVGKRLNQMIPIAHVPKINGELPSEDEQISDHERLFQRLQLYGLVENKIEGDGNCQFRSLSDQLYRSPEHHNFVREQVVNQLAYNREIYEGYVPMAYNDYLKAMKRNGEWGDHVTLQAAADLFGVRMFVITSFKDTCYIEILPHFQKSNRLICLSFWAEVHYNSIYPEGELPIPEGKKKKKYWVF
B3: GST-OTU4c (protein)
chain: MMICYSPITTCSRNAISIKRHLGSRLYGVVAHGSSKFSCYSLLSGLSRRHYTGFRVSVSNRPSSWHDKGLFGFAYTGVIVSLLVCYSSTSQSAYADSSRDKDANNVHHHSSDGKFHNGKRVYTDYSIIGIPGDGRCLFRSVAHGFCLRSGKLAPGEKMQRELADELRTRVADEFIQRRQETEWFVEGDFDTYVRQIRDPHVWGGEPELFMASHVLQMPITVYMKDDKAGGLISIAEYGQEYGKDDPIRVLYHGFGHYDALLLHESKASIPKSKL
B4: GST-OTU10 (protein)
chain: MVSHEENTSIVEWFLGPHPYTYPPYGIEMIHEDDEVAVAHHHHHHQSGEYYREYEDHRSSDVDNDEIIARTLQDDFLQLEIAESNDYSHQNQQQQHQQEGYTNNYSNNNNGYAWNDQSPAVDYSSEWIGNDNDQDGRSDDSVNVFSCSSPSDTDEYVYSWESDQCDADGEFGRRLNQMVPIPYIPKINGEIPPEEEAVSDHERLRNRLEMFDFTEVKVPGDGNCQFRALADQLYKTADRHKHVRRQIVKQLKSRPDSYQGYVPMDFSDYLRKMSRSGEWGDHVTLQAAADAYRVKIVVLTSFKDTCYIEILPTSQESKGVIFLSFWAEVHYNAIYLNRDTSETELQRKRKWWRFGN

molecular target: HA3-UBQ-GST [GST: P08515]

Row | Protein | in vitro deubiquitylation activity
1 | B1 | ++
2 | B2 | ++
3 | B3 | ++
4 | B4 | ++

molecular target: K63-tetraubiquitin chains, P0CG48
Sequence (P0CG48 whole entry, looked up): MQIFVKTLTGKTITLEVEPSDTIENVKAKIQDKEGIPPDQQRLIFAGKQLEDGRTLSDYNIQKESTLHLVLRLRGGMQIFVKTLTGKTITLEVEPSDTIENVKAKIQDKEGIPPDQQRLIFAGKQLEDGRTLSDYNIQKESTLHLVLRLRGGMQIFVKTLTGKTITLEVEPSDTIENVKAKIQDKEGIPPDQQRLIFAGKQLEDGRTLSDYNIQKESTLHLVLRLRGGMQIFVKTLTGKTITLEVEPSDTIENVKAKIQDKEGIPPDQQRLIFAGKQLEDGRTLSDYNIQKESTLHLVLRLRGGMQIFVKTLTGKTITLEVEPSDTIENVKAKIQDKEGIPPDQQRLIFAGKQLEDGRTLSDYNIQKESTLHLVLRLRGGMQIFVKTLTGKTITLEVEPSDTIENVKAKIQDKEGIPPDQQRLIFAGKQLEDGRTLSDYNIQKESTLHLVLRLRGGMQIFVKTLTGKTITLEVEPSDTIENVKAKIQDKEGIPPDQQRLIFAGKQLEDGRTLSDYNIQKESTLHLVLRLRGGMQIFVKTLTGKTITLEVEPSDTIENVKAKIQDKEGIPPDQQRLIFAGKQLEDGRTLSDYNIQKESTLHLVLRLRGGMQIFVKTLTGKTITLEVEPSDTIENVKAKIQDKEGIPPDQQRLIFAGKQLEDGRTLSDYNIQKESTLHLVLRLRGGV

Row | Protein | in vitro deubiquitylation activity
5 | B1 | ++
6 | B2 | ++
7 | B3 | +++
8 | B4 | +++

molecular target: K48-tetraubiquitin chains, P0CG48
Sequence (P0CG48 whole entry, looked up): as above

Row | Protein | in vitro deubiquitylation activity
9 | B1 | +
10 | B2 | ++
11 | B3 | +++
12 | B4 | ++

Molecular target: T1, HA3-RUB-GST, Q9SHE7

Row | Protein | in vitro deubiquitylation activity
13 | B1 | +
14 | B2 | +
15 | B3 | +
16 | B4 | +

molecular target: purified recombinant linear UB tetramers

Row | Protein | in vitro deubiquitylation activity
17 | B1 | -
18 | B2 | -
19 | B3 | ++
20 | B4 | -

molecular target: HA3-SUMO-GST, P55852

Row | Protein | in vitro deubiquitylation activity
21 | B1 | -
22 | B2 | -
23 | B3 | -
24 | B4 | -

molecular target: purified recombinant linear UB trimers

Row | Protein | in vitro deubiquitylation activity
25 | B1 | -
26 | B2 | -
27 | B3 | ++
28 | B4 | -

molecular target: purified recombinant linear UB dimers

Row | Protein | in vitro deubiquitylation activity
29 | B1 | -
30 | B2 | -
31 | B3 | -
32 | B4 | -

— patent publication US20150353909
